Results taken from patent US10828372B2, “Compositions and methods for the inhibition of fibrosis” (WISCONSIN ALUMNI RESEARCH FOUNDATION, priority 2017, dated 2020).
Where no end group is shown, it is not given here. PEG10kDa = 10 kDa linear methoxy-PEG propionaldehyde on the N-terminus; PEG20kDa = 20 kDa linear methoxy-PEG propionaldehyde on the N-terminus

Columns and labels:
[1] = Fluorescence imaging (IVIS) of subcutaneous dose absorption; assay type: in vivo, mouse; details: for % dose remaining at the site of injection after 24 hours / apparent half-life at the site of injection: s.c. 12.5 mg/kg FUD equivalents; for apparent half-life at the site of injection: spiked with 1.5% Cy5 labeled drug, nude mice
Description: Preparation of Animal Experiment FUD and 10-40 kDa PEG-FUD Drug Dose: A 12.5 mg FUD equivalents per kg of mouse weight drug dose spiked with 1.5% Cy5 labeled drug was prepared by mixing an appropriate amount of unlabeled and labeled drug in a conical vial. The drug was then dialyzed ON into phosphate buffered saline (pH 7.4) using a 3000 MWCO dialysis membrane. The total volume of the dose was reduced to the appropriate value using a 3000 MWCO Amicon® Ultra-15 centrifugal unit. The final concentration of the drug was determined using a UV-vis spectrophotometer and the 646 nm extinction coefficient of Cy5, ε=271000 L·mol^−1·cm^−1.
10 week old mice weighing 20-23 g were placed under 2% isoflurane anesthesia and positioned on their abdomen inside of an IVIS Spectrum In Vivo Imaging System. A 100 uL dose containing 0.27 mg (12.5 mg/kg) of FUD or FUD equivalents of 10-40 kDa PEG-FUD that was spiked with 1.5% Cy5 labeled drug was delivered subcutaneously between the shoulder blades of the animals (n=3 per treatment group). The animals were imaged before the injection, immediately following injection, and at time points of 30 minutes and 1, 3, 6, 12, 24, 36, and 48 hours. The animals were sacrificed following the last time point and their organs were harvested for ex vivo fluorescence imaging and drug extraction and quantification. LivingImage® (PerkinElmer) software was used to analyze the views of each animal group. The autodraw feature of the software set to a 5% threshold was used to create unique regions of interest (ROI) on each animal at t=30 mins views that were consistently applied to each subsequent time point views to quantify drug levels present at the site of injection. Baseline autoflorescence values calculated from ROIs applied to “before injection” views were subtracted from the values of each time point's animals. The ROI values obtained from the t=30 mins views were used to calculate % dose remaining for each subsequent time point.

[2] = system: Alexa 488-labeled human plasma FN; experiment: Matrix Assembly in vitro Assay (MAA), A488-FN deposition by AH1F fibroblasts; assay type: cell-based; details: 24 hours, viability-normalized fluorescence, n=4, FUD run alongside each conjugate
Description: Matrix Assembly Assay: The matrix assembly assay was conducted in the 96-well plate format as described in the art. AH1F human skin fibroblast cells resuspended in 2% fetal bovine serum were added to each well for a density of 60,000 cells per well. A 1 hr incubation period at 37° C. followed to allow cell adhesion and spreading. FUD, PEG-FUD, or PEG-mFUD were added to each well following incubation. Immediately, Alexa Fluor® 488 fluorescence labeled human plasma fibronectin (A488-FN) was then added to each well for a final FN concentration of 11 μg/mL. The cells were then incubated for 24 hours at 37° C. Non-assembled FN was removed from each well by washing with Hank's Balanced Salt Solution (HBSS) containing Ca^2+ and Mg^2+. The well volume was restored to 60 μL with HBSS and a fluorescence reading from the bottom of each well was taken using a Synergy™ H1 (Biotek) plate reader (excitation: 485 nm, Emission: 538 nm). Cell viability was quantified using CellTiter-Glo® cell viability assay using the manufacturer's protocol. A 30 μL aliquot of HBSS was removed from each well and was replaced with 30 μL of the luminescence reagent prepared shortly beforehand. Luminescence was quantified using the same plate reader. The average of fluorescence values of a no A488FN or inhibitor control group were routinely subtracted from the readings of each well and were normalized using each well's corresponding luminescence value. Lastly, the cell viability normalized fluorescence values were expressed as a percentage of the 0 nM drug control group. The final results were processed using Graphpad Prism 7.0 software. IC50 values were extracted using a four-parameter dose-response curve function. Student's t test was used to determine significance of differences among peptides at a given drug concentration.
The PEG-FUD FN fibrillogenesis inhibitory performance was evaluated in vitro using the matrix assembly assay (MAA). The methodology of this assay is depicted in FIG. 8. The MAA quantifies ECM deposition of exogenous AlexaFluor® 488-labeled FN (A488FN) by a confluent monolayer of fibroblasts after an incubation period by measuring fluorescence of deposited FN. In this study, the performance of PEG-FUD peptides was compared to that of FUD and the PEG-mFUD control peptide using the AH1F human foreskin fibroblast cell line.

[3] = target: human plasma FN; experiment: Isothermal Titration calorimetry (ITC) of peptide binding to fibronectin; details: pH 7.4 PBS, 25° C., triplicate
Description: Isothermal Titration calorimetry (ITC): ITC experiments were performed using a VP-ITC microcalorimeter (MicroCal, LLC) with a cell volume of 2.2 mL. In a typical experiment, the cell was filled with 1.4 mL of 2 μM human plasma FN and the syringe was filled with 1 mL of 28 μM FUD or PEG-FUD peptides. The temperature was set to 25° C. The titration experiment was performed in 39 injections (1×1, 4×4, and 34×8 μL) delivered in 120 sec intervals. Prior to injection, both FN and the peptides were dialyzed in separate dialysis bags overnight into the same PBS buffer (pH 7.4) solution. Routine analysis involved discarding of the first data point and subtraction of peptide into PBS buffer control run. Data were fit using one set of sites model Lavenberg-Marquardt nonlinear regression in Origin 7.0.
The binding of 10 kDa, 20 kDa, and 40 kDa PEG-FUD to FN was studied using Isothermal Titration calorimetry (ITC). This technique was used to determine the thermodynamic parameters as well as the binding constant (Kd) of the interaction. The peptide was injected into a human plasma FN solution in PBS at pH 7.4 and 25° C. in triplicate runs. […] A Kd of 6 (±3) nM was detected for FUD:FN. […] Similar entropy change of −65 (±3) cal/mol, −74 (±7) cal/mol, −66 (±7) cal/mol, and −73 (±2) and enthalpy change of −31 (±1) kcal/mol, −34 (±2) kcal/mol, −30 (±1) kcal/mol, and −32.5 (±0.5) kcal/mol were detected for the interaction of FUD and 10 kDa, 20 kDa, and 40 kDa PEG-FUD with FN, respectively. […] This observation is contrary to the expectation of PEG attachment diminishing a drug's affinity for its binding partner and presents an unexpected but desired feature of the PEG-FUD peptide.

[4] = literature examples; cited from earlier work

Sequence of Alexa 488-labeled human plasma FN (P02751 32-608 limits assumed): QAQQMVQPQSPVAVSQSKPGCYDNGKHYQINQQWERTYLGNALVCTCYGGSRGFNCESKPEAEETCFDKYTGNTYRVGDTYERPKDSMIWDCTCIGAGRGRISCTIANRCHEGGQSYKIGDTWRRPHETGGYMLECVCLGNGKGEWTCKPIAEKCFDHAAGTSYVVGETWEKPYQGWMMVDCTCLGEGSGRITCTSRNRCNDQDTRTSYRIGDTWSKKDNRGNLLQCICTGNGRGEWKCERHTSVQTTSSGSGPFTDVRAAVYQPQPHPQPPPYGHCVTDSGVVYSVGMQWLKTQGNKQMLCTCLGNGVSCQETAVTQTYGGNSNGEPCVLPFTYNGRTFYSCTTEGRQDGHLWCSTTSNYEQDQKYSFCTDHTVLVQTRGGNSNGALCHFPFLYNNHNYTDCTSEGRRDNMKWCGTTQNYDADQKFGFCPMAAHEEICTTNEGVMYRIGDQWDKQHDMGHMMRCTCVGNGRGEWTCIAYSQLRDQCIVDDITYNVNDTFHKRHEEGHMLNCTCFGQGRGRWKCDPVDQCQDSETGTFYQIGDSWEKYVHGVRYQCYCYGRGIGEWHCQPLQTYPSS
Sequence of human plasma FN (P02751 32-608 limits assumed): as above

Row | Substance | % dose remaining at the site of injection after 24 hours [1] | apparent half-life at the site of injection [1] | IC50 [2] | Kd [3] | migration into the site of injury (ear tag wound) ([1]; fluorescence imaging) | reduction of activity upon PEGylation [4]
1 | 20 kDa PEG-FUD: FUD N-terminally mono-PEGylated with 20 kDa linear methoxy-PEG propionaldehyde (PEG20kDa-KDQSPLAGESGETEYITEVYGNQQNPVDIDKKLPNETGFSGNMVETEDT) | 3.5% | 6.2 h | 23 nM | 10 nM |  | 
2 | 10 kDa PEG-FUD: FUD N-terminally mono-PEGylated with 10 kDa linear methoxy-PEG propionaldehyde (PEG10kDa-KDQSPLAGESGETEYITEVYGNQQNPVDIDKKLPNETGFSGNMVETEDT) | 1.2% | 2.8 h | 17 nM | 4.6 nM | migration of 10 K PEG-FUD into the site of injury | 
3 | 40 kDa PEG-FUD: FUD N-terminally mono-PEGylated with 40 kDa branched methoxy-PEG propionaldehyde ({mPEG 40 kDa branched}-KDQSPLAGESGETEYITEVYGNQQNPVDIDKKLPNETGFSGNMVETEDT) | 7.9% | 8.7 h | 20 nM | 14.7 nM |  | 
4 | PEG-G120K-GH: literature example of a PEGylated protein with reduced activity |  |  |  |  |  | 186 fold
